# Assay results from a protein production outcome set (Wang et al. 2014).
# Assay: label from the status in PepcDB records
row,Sequence,protein production
1,MKRLIVVYLLFISLNVLNAWAQKSPADYVNPIIGATTADEMAGSDHGLGKTFPGVCTPFGLVQLSPDTKTGGDNGPGYSWHHSTIEGFSFTHMSGIGWYGDLGNFLVMPTTGELHTFKGTEENPESGYRSRYSHDREVAKVDGYSVMLDDYGIQVELAAASRSGMMRFTYPQSEVSRIQIDLARRIGGTSTEQYVEVVDDYTIKGWMKCTPDGGGWGDGAGQGNYTAYFYCCFDRPLKNFGLWSADIPEGVERKNASNDDPAYHEYIKNAHVFPRKKIAQGKHLGFYTEFSTREGEQALLKCGISFVSIEGARKNLQSDISDWNFDGVRQRARRQWNEALSGVQVEGEEKDKTIFYTSLYHTMIDPRCFSDVDGAYPGADGKVHYADNFIYRTIFSGWDVFRSQFPLQTITNPRLVDDEINSLIQLAELSGKKYFPRWEFLNAYSGCMVGNPAVSVVADAYNKGIRNYDTRKALEYSLNTVRTFGNNEQGYTPDDLSKTLEYAYTDWCVSTMLRDMGREQEAVAFERKAQSYHQVWCDSVKWFRARSADGSWMPWKGRNVHWQGCIESNNYQQGWFVPHDLEGLISLMGKEYFERELVAFFEGADERFMWGDYYNHPNEPDHQVPFMLNYTSRPWLTQYWTRRICRNAYGDTVNGLCGNEDVGQMSAWYILAAMGFHPICPGNNRYELTSPVFRKVILSLDNRYYKGRTFTIIAHHNSPENVYIQSVSLNGKPLNRLWITHEEITKGGVLEFVLGKDPKH,failed
2,MKRLLLCLIVIAQTILSLTAQTTEELSRMQTLIDHMAYTEALAWADSCSLQDEQALHLRAKALSELGRHPEAFAVYQRIVRMDPHDAVAYRLGAALQVDMQDYATAAEMLHQGYERTSDIPTGYDLAKLLVHIGQDSTALVITDRILRQDSLPPVIRLRAKALNKRQQPSQAIALLEEQMLRDSTDFLTLIDLATLYGQVEETRRQEQVTARYLQTDSLNVAVLLAHAESMMMLQEADSALHDYERIIGRGHFPTSFKDLFYCGLAYYKTGRWAVAEECFRRADESAFQQNYLTKYYLGMCAYRQKLWEEAEKRLQKLLDLIEPKTDRLTDVHTMLGRCANEQGRTETAISHLRYAIEYDSGNSEACLLLAQCFEKTGNRTGAIHMYRRVLDKERASTAKNDIEGFRRLAEARSRLSLLKADDSEDEETP,failed
3,MKRLMTSLAALSLTAGLAHAQAADVPDNLEKLSNFQSTGATDFTFVEQGGDFADGIKRNLERIKLPQGFRIGLYAVVPDARHMAVGPQGIVTFVGTRKDKVWAVTDRNKDRVADEVKDFAPSLRFTIPNGPCFSKDGFLYIAEQNRVLLFPAAEFFYESGDVAAFNLVKQGELIPVEEESFNHTARVCDIGPDGMIYITLGQPFNVPAPEKRELYDKWGIGGIVRMKTDGTGREVFARGIRNSVGMDIDPETGNVWFTDNQVDGMGDDIPPGEINRATEPGQNFGFPWYGGGSIRTNEYKDEEPPADAVMPVVEMDAHAADLGMMFYTGSMFPEEYRGAIFSAQHGSWNRTTPVGARVMVTTLAEDGTATTKPFAEGWIDENGEYLGRPVDVAQLRDGSILVSDDLVGAIYRIWYQPE,failed
4,MKRNIFSIGFISVVLFIVLGACVGLAASEALQGSEQEINSAFSNQITPVISGDYIVWQDERDGNWDIYMYDMSAGRTETSLFNGPKDEIEPAISGSRVVLADNRRGNYDIYMYDISTKKEVQVTSDKSEQKEPAISEDIIVWTDRRNQNTDIYMYDLTTKEETRITDDKADQSQPAVWGNIIVWKDTRNGNEDIYMYDISAGKESPVVMDSAAQTNPVIEGDYIVWEDRRAGNLDIYMYEISTGKEKPVCTDPSPQKTPAISDGRIVWADGRIKGTNIFIYDIATGQEKTVSTASEYESNPSIDGNRIVWQDKRKGAMDIFMFTEDASETESTAGEKTEAETGSKAPLGIYPVSAGVIAAYLMINSGKKGKRKT,failed
5,MKRPELIIFDWDGTLFDSVGQIVASLRFAADQFNQPLTDEAAQSIIGLGLPEVMQALFPQVPHLHQEILVHYGEHYVENSKHDAWFEGVAELLHDLKAQGIKLAVATGKSRRGLDRVLNKTQSHELFDITRAASETMSKPHPRMLEEILQVTQVEAQHAIMVGDSSYDLEMAKNIDMPRVGVSYGVHEVDVLQRYEPLTIVDSIAELHHYLTQLLQEKIHA,failed
6,MKRRAGLGGSMRSVVGFLSQRGLHGDPLLTQDFQRRRLRGCRNLYKKDLLGHFGCVNAIEFSNNGGQWLVSGGDDRRVLLWHMEQAIHSRVKPIQLKGEHHSNIFCLAFNSGNTKVFSGGNDEQVILHDVESSETLDVFAHEDAVYGLSVSPVNDNIFASSSDDGRVLIWDIRESPHGEPFCLANYPSAFHSVMFNPVEPRLLATANSKEGVGLWDIRKPQSSLLRYGGNLSLQSAMSVRFNSNGTQLLALRRRLPPVLYDIHSRLPVFQFDNQGYFNSCTMKSCCFAGDRDQHHNWKWRAQAVSFQPFLSLTRNGDADVDLKLAV,failed
7,MKRREVLQAGMALGGLAGLGRALAQGGFTLTLVHTNDTHAHLEPVELTLSGEKTPVGGVARRVALFDRVWARAKNPLFLDAGDVFQGTLYFNQYRGLADRYFMHRLRYRAMALGNHEFDLGPGPLADFLKGARFKVVSANVDASREPRLKGLFAPYAVVVVGGERVGIIGLTTPDTREISNPGPTVAFLDPYESAQKAVYELLAKGVNKIVVLSHLGYGEDLKLARRLVGVQVIVGGHSHTLLGSFPHKELSPAGPYPTVVKNPEGKDVLVVQAWEWGKVVGLLEVTFDAKGELLAYKGEALLMTPEAAPEDFFAKEALLAYAQPVMALMQQVIAEAKVDLVGERAVVRRRESNLGNLITDGMLWKTRNAGTQIALQNGGGIRASIPKGPITVGKVYEVLPFGNTLVVMDLKGKEILAALENGVSQWENTAGRFLQVSGLRYAFDLSRPAGSRVVRVEVKTEKGYVPLDLEATYRVVVNNFIANGGDGFTVLKEAQGYRVDTGFSDAESFMDYLKELKVVEAGLEGRIEVLNEPKGERPAYFAYRVPGLVGV,not failed
8,MKRRYSILIILLVAIFYRMITFRFKYLLGYDPYFHLAYIEEVNKVGKWINFLTFAGGPWGYQVKLFHPLGLWMTPLYLYKLLKVFGVSLTTTFKITPVIFGVLTVIFLYLSLLKLYDEKRAFFGGFFLAISYGHVFRSMANYYRGDNYMLFWYSVALLGISLALGIKKGKWKYKRLIFYTLPVLASGFSAIFWQAYYPIFAFLLSNALLLAVGAFILKKDKYLLDSIILILSTAFGVLLANYLGGIFGYGMLGYAKWLGKSVAKKLGLEFGYLKDVYLILHLKYLVPISLSFVLVLILLGFLTKDIRIRSLFLGIASFIGIIILFKRFEALKELSTGFGIFKEAPILETQPTSFKDLWAAFSLSFFLTPLFFIRFKKPRVEDFLTLGLIIPSVYMLKTWTRFLFIGSMAIAIMSGIGIVELYEAIKPRLNGKKALATGIITLVILPGVIAGLSFKEVCSLHPEMNEAWERALKWLKNNSNENDVILAWWDWGHFITYYARRSPIAQGGPSVGVALYLLGKLNENWAINLGVDYVIVSYYDFLKFGAILSTANLSKRYNIRGYGLVVLPLRASTGALIFENRGYRAIVRHDKSWNAVIIYNGQMIYPRKLYVEHKEGVQEIKPPESNSNTYLYVNLNYGYAIFMNGNAFNTTLVRLFITPEKPYKLVYSDGGLIKIFKLEHPNVKVERRESNVILNFENGTSLGLYFFLDNGTMVLSKWYNVKGKNEFIVPKVNASVARYVLKRGKKVVDRGVFRLSYN,failed
9,MKRSFSMMTDKRKLHRKKMKRKKRRRRLMFGCLLLFLVLAASGLGYASFLMHKMKTAMNEAYEEIGAKKNTGDHLDPKKDSFTVLFIGIDDSKTRNFKSDTRSDALILAAFNADTQLVKMVSIPRDSYVYIPCEDKYDKITHAHAYGGTKCTIESIERLFDIPIDYYVKMNFYAFIDVVDALGGIEVEVPYNIREKDAEDNRNAIVLKKGYQHLNGEEALALARTRKKDNDIERGKRQQQILQAILKKASHAGSISKYDDVIEAIGSNMKTNFTFDDIKALIYYVSTGNPLQTESLVLQGTDDNEGVYYYRLDEESVQQISDALRSQLHASAGTQLEKERN,failed
10,MKRSLRVGSVAGIGIFLHWTFLLLVAAIFAYYYVQSQSLGAALSGMGLILGVFVCVILHELGHALTARRFGVPTRSITLYPIGGLARLERIPSEPMKEFWIAIGGPAVNVVIAFALALVLLVTGGTLAPVALEAPGSHALASLMWINAVLAVFNMLPAFPMDGGRVLRALLALRWDYAQATQTAANVGQGMAVLFGLIGIMTWNPVLLFIALFVYVGAQQESKQAMYRAFTEGTPVREAMVTRFATLTVDDTLDDAVDALLAGTDHDFPVLEAGTVVGLLRRKQLIQALSEHGRDTPVAEVADADCFTTAPSAPLDEVFQQMNARSCSTVPVVDGGQLVGLLTLENVGELIMVSSALETRSHSRVPRDQLSEAPLRERPDGAASSGAPPVP,failed
11,MKRTGILLVNLGTPKDSSKTEVRKYLKTFLSDRRVIKIHPIIWKPILNGIILNIRPKKSAKLYQKICTENGFPLLEYTEKQMENLKNICPEVEVTIGMSYSEPSIETALDTLLSKEIEELNVIPMYPQYSGTTVGSVFDSVMNYFIKSDRIVDIKFIRSFYNNPQYIDYFSKKINEALNESPIDAIVFSYHGIPMSYVKDGDNYPKECTKTTKLIMDKLGDIRYYQTYQSKFGPSEWLKPATDDTLKKLPSKGIKNILIVAPGFVVDCLETIEELEHENRNYFLENGGEVYKYVHPFNGDIEFAKLVKDIISL,failed
12,MKRWQMEWLLVSVALVWGANYTIGKYGVAYMSSIQFNSLRFLVASPVLLLITFLMERSLRIDRKDWLRLVAVGIVGTTMYQTMFMLSVKYTSATNASLLIAMSPIFTGILAVLHKQERFSMKVQIGSIVAFIGAAFVLLTGHTGGTTYEYAWLGNIIGLVAAIAWGWYPILAQPLITKYSAMRVTSWSTLIGIVPLVVYCLFNVNTLTWPVDMPSWGSLAYSIVFATIFGLAMWYVGISKIGSTKVMVYMYLVPLFAVIFAAVTIGEQINMMQLVGGLIIFIGLYVVKKGGIQKPALNLKKVS,failed
13,MKRYRTLLFDVDDTILDFQAAEALALRLLFEDQNIPLTNDMKAQYKTINQGLWRAFEEGKMTRDEVVNTRFSALLKEYGYEADGALLEQKYRRFLEEGHQLIDGAFDLISNLQQQFDLYIVTNGVSHTQYKRLRDSGLFPFFKDIFVSEDTGFQKPMKEYFNYVFERIPQFSAEHTLIIGDSLTADIKGGQLAGLDTCWMNPDMKPNVPEIIPTYEIRKLEELYHILN,not failed
14,MKSGERSAVADRAQQIMSAARELLDAEGPDALSMRRIAERVGIRAPSLYKHFADKAALVAGLQAQGLTLLAEVQEAAEAEIGADPPLLVLGYAYRRHALASPHLYRITHGWPLARTALPEGLEDRAALPLARAVHGDINIARSFWAFAHGMVVLELDGRFPPGADLDVAWRTGCEAFTQAIRNRPHGSTA,not failed
15,MKSIVIYESVHHGNTEKVAKAMVEELNAECIRAQDLNLEKLKDYDLIGFGSGIFYNKFHKNILKLVGNIGKVNGKKAVVFSTSGQGRESSNKSLRKQLEEKGFKVIGSFACKGFDTFGPLKLLGGIGKGRPDQKDIEEAKKFVLGLEKNLLEHHHHHH,failed
16,MKSLATDMTEGNVSKHLIKFAIPLILGNLFQLTYNASDSIIVGRFVGKNALAAVGIANPIMNIVMFFIVGICLGASVLMSEYYGAGNVKKLRREISTTVIAGFIFTVLIIIICVIFTEPILGLVKTPKEIIPEAAIYLRIIFISLIFTFFYNIYAAALRSIGDSKNPLLFLMISAVLNVVMDIVFVVWLKMGVAGSAIATSVAEMMSCVFCIVYVHFKIPILKFSFKDMVIDKGLLRSTVNYSWATAMQQTCLYVGKFMVQGAVNPLGVNSIAAFNAVNRVDDFAFAPEQSISNAMTTFLAQNRGANKYKRIKKGFLTGMKLETLYWCILVGIVYLGSTAIMKLFVSGSEVKVISIGSYYLKLMAFFYLLPSWTNGVQGYFRGMGDMKITLRSTFSQIVGRVAFSYILAPRIGMVGIAFSCLGGWIVMLAYEVPCLIKYRRNFNNKLSESSI,failed
17,MKSNDLVDQIMAQVIAKVSEHAPASSAQPSHAQPSYKQRDTAMAEKTCSLTEFVGTAIGDTVGLVIANVDSALLDAMKLEKRYRSIGILGARTGAGPHIMAADEAVKATNTEVVSIELPRDTKGGAGHGSLIIFGGDDVSDVKRAVEVALKELDRTFGDVYANEAGHIELQYSARASHALEKAFGTPLGRSCGVIVGAPASIGVLMADTAVKSANVDVVAYSSPAQGTSFSNEVILVISGDSGAVRQAVISAREIGKTVLATLGAEPKNDRPSYI,failed
